The values that follow come from PMC2697666 (Journal of molecular biology, 2009).

The target of the experiment is human factor Xa (human).
Sequence of human factor Xa (human) (P00742 41-488): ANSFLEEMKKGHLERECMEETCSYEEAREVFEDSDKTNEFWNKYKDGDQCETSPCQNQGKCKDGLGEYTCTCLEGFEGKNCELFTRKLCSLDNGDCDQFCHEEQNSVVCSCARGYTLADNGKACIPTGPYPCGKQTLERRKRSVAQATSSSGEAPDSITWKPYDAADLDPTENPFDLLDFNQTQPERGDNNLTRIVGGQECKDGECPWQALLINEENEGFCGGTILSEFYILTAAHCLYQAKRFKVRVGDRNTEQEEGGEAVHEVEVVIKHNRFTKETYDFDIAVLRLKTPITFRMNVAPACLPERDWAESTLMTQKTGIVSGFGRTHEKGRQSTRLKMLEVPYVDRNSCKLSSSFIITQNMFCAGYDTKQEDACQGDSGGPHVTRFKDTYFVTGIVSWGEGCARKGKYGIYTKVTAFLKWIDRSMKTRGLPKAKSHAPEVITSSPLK
Turning to “S137A/S380C antithrombin (from UniProt P01008 33-464) (natural protein)”, the second-order rate constant of factor Xa inhibition (kapp), with pentasaccharide is 194000 M⁻¹ s⁻¹.

With “S137A/V375C antithrombin (from UniProt P01008 33-464) (natural protein)”, the second-order rate constant of factor Xa inhibition (kapp), with pentasaccharide came to 664000 M⁻¹ s⁻¹.

For “S137A/V375C/S380C antithrombin (from UniProt P01008 33-464) (natural protein)”, the second-order rate constant of factor Xa inhibition (kapp), with pentasaccharide came to 331 M⁻¹ s⁻¹.

The substance “recombinant beta-glycoform S137A antithrombin (from UniProt P01008 33-464) (natural protein)” returned a second-order rate constant of factor Xa inhibition (kapp), with pentasaccharide of 756000 M⁻¹ s⁻¹.
